# Positions count from the first letter of the chain named. Where no end group is shown, it is not given here. fluorescein = fluorescein moiety attached to the N-terminus of the peptide (N-terminal fluorescein label)
# Columns and labels:
# Test in all cases: fluorescence anisotropy equilibrium binding (Kd,app), ExoI variant titrated into fluorescein-labeled peptide
# ExoI Gln452Ala variant = target: T1, ExoI Gln452Ala variant (Escherichia coli, UniProt P04995 1-475)
# T1 construct: helical domain residue; also called Q452A; Gln452 variant
# T1 sequence: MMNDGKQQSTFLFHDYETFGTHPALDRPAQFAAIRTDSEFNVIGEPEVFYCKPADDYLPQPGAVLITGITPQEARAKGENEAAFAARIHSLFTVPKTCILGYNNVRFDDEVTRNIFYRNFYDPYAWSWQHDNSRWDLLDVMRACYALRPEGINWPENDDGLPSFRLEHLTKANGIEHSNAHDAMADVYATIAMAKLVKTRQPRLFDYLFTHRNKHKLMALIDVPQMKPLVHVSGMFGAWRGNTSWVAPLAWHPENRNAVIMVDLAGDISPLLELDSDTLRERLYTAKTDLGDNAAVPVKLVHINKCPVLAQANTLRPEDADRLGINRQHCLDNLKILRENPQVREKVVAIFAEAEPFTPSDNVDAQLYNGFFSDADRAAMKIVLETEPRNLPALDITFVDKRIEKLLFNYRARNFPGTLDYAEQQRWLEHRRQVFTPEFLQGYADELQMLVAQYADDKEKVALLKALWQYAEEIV
# ExoI Lys227Ala variant = target: T2, ExoI Lys227Ala variant (Escherichia coli, UniProt P04995 1-475)
# T2 construct: basic ridge residue; also called K227A; Lys227 variant
# T2 sequence: T1 sequence with K227A, A452Q
# ExoI Glu318Ala variant = target: T3, ExoI Glu318Ala variant (Escherichia coli, UniProt P04995 1-475)
# T3 construct: also called E318A; Glu318 variant
# T3 sequence: T1 sequence with E318A, A452Q
# ExoI Tyr207Ala variant = target: T4, ExoI Tyr207Ala variant (Escherichia coli, UniProt P04995 1-475)
# T4 construct: also called Y207A; Tyr207 variant
# T4 sequence: T1 sequence with Y207A, A452Q
# ExoI Arg316Ala variant = target: T5, ExoI Arg316Ala variant (Escherichia coli, UniProt P04995 1-475)
# T5 construct: residue flanks peptide A; also called R316A; Arg316 variant
# T5 sequence: T1 sequence with R316A, A452Q
binder,measurement,setting,value
fluorescein-WMDFDDDIPF (also called F-SSB-Ct; F-WT) [fluorescein-labeled SSB C-terminal peptide (fluorescein-WMDFDDDIPF)],Kd,ExoI Gln452Ala variant,212 nM
same,Kd,ExoI Lys227Ala variant,~1000 nM
same,Kd,ExoI Glu318Ala variant,80 nM
same,Kd,ExoI Tyr207Ala variant,> 1000 nM
same,Kd,ExoI Arg316Ala variant,> 1000 nM

# — patent publication US8415393B2, “Anti-bacterial drug targeting of genome maintenance interfaces” (Wisconsin Alumni Research Foundation, priority 2007, dated 2013)
